The record followed here is article PMC6374916.

Experiment [1] addresses K18 ΔK280 tau oligomers, dual-labeled (tau-AF488/AF647 coaggregates). Put plainly: single-molecule TIRF microscopy colocalisation; dual-labeled tau oligomers produced (heparin, 45 min, 37 °C) in the presence of 2 uM Hsp70-AF405 (1:5 Hsp70/tau), diluted into 0.05 M ammonium acetate pH 7 to 50–200 pM tau, adsorbed onto a glass cover slide for 15 min.
Experiment [2] addresses K18 ΔK280 tau-AF488 fibrils. Briefly: FRET or BRET; smFRET saturation binding, pseudo-equilibrium, apparent constants; 100 nM tau-AF488 oligomers or 1200 nM fibrils (initial monomer concentration; donor) mixed with 0.5 nM to 10 uM Hsp70-AF647 (acceptor), 5 min on ice, then diluted to 200 pM tau and read on a confocal setup; oligomer size classes by fluorescence intensity.
For experiment [3], the target named is K18 ΔK280 tau-AF488 oligomers, large (10-mers and higher, apparent size). Described as above.

Turning to “Hsp70 labeled with Alexa Fluor 405 (from UniProt P0DMV8 1-641) (natural protein)”, the stoichiometry N (Hsp70 molecules per tau monomer) in experiment [1] is 0.5.
“Hsp70 labeled with Alexa Fluor 647 (from UniProt P0DMV8 1-641) (natural protein)”: the Kd in experiment [2] was found to be 19 nM; in experiment [3], 170 nM.
